The supplement of paper PMC9170038

Test system: K4 kissing-loop RNA reporter
Assay: apparent KD of K4 kissing-loop reporter; higher = weaker reporter binding
Details: Eterna round: R107
Method: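 RNA-MaP round R107: designed RNA switches with theophylline, tryptophan, arginine or FMN aptamers are transcribed on-chip within common flanks. They are titrated with a labelled K4 kissing-loop RNA reporter in RNA-MaP buffer (100 mM Tris pH 7.5, 80 mM KCl, 4 mM MgCl2), without ligand or with the indicated ligand. Median apparent KD per design.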

[1] = input ligand: theophylline 20 uM
[2] = input ligand: tryptophan 2.4 mM
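Also: bound reporter read as fluorescence of individual clusters on recovered sequencing chips by microscopy, with normalized cluster intensities fitted with a binding model.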

Sequence	apparent KD of K4 kissing-loop reporter (input ligand: FMN 200 uM) [µM]	apparent KD of K4 kissing-loop reporter (input ligand: arginine 13.2 mM) [µM]	apparent KD of K4 kissing-loop reporter (input ligand: none) [µM]	apparent KD of K4 kissing-loop reporter [1] [µM]	apparent KD of K4 kissing-loop reporter [2] [µM]
AGUACAAUGGCGGCCGCCACUCAAUGGCAGAUCAAAGAUCUGCAUCACUCAGUGAUGUUGAGUGAGAGGACCGGGCCUUUGUACA [Omei KL Tryp B SS B v7]	0.564	0.517	0.563	0.505	0.157
AAAAUAACCCAGUGAUGUUGGUAUACAGAUACCAGCGACGAAAGUCGCCCUUGGCAGCUGUGGACGUACAAAAUAAGUACGUCCU	0.986	0.705	1.12	0.902	1.01
AUAUUACUAUACGAUACCAGCCCUAACACUAGUGACGCGGUAAUAGUGAUGUUGUAACCCGGCCCUUGGCAGCGUAAUCAUGGAA [theeternabot_sameState_KL_Theo_B_7]	0.529	0.395	0.519	0.524	0.475
GGAUCCACCAGUGAUGUUGGAGAAAACUCUAAGGAUAUGACGAAAGUCAGAAGGUGGUAGACUGGACAAAGUCCGGUAGGAUCCA [FmnA10 U30+A78]	0.682	0.201	0.617	0.216	0.25
GAGAACUCUUACGAUACCAGCCGGAGUGAUGUUCCGUGCUUGGACGUAGUAACCCGCACCGGCCCUUGGCAGCGUGGAUCCUAUG [Biorar]	0.0861	0.0783	0.0823	0.0793	0.0744
CGCAAUAUUACGGAGUGAUGUUUCGUAGUCCGAGGACCGGUACGGCCGCCACUCGCUGGCGUUGGCCCAUAGACCGACGGAAUCG [theeternabot_sameState_KL_Trp_A_39]	0.246	0.252	0.257	0.236	0.238
UGACUACAUAAGGAUUAAUCCUAGUGAUGUUAGGAUAUGCUGAUAAGCAGAAGGAACGGAGAUCGAAGGAUCUCAUAUGUAGUCU [whbob_Ex_FMNA__2th195]	0.457	0.135	0.164	0.138	0.164
UACAGGGAUAGUGAUGUUAUCCCAUGUGAUACCAGUGCCAUCCAACACCCUUGGCAGCAUACGGGCAGUGAUGUUGUUCUUGGUA [#16 K4 Theophylline A Exclusion]	0.0898	0.0798	0.086	0.0861	0.0801
GCCGUACGCAUGGAUACCAGCAUGCAUAUUAGCUAGUGAUGUUAGCGCUAUGCGAUGCUAUGCCCUUGGCAGCCAUGCGUACGGC	0.124	0.108	0.127	0.247	0.132
GGAGGGAUCUCGGCCGCCACUCGUGGGAAAUGGGCCUCAGGGAUAUAGUGAUGUUAUGUAAAGAAGAGGACCGGGAGAAGGAAGG [ExTryptoB.Dg]	0.319	0.269	0.33	0.366	0.24
UUAGGCUCUCUUCUCAUUCGCUUAACCGAUACCAGAGUAAGCCCUCUCCCUUGGCAGCGGAGUGAUGUUCCGAGUGUUGAUAUUG [theeternabot_exclusion_KL_Theo_A_44]	0.0931	0.113	0.113	0.13	0.107
UCCUGCAAUCUGCCACGAAAGUGGAUUGAUACCAGAGUCGAAAGACUCCCUUGGCAGCGAGUGAUGUUCGAAGCAGGUAAAUAAA	0.0994	0.149	0.124	0.16	0.0917
UAUUAAUUGUCAGGAUAUCGUAAUCGAGUGAUGUUCGAAUAUCGACGAUAGUCGAUAUUAUUUAUACGAGAAGGGACAUUAUUUA [JR_SSFMNB_Sub004]	0.366	0.298	0.417	0.321	0.332
CAGCAUCAGGUUCAAACUGCAUGUACUGAUACCAGUCUUAAGAUCGACCCUUGGCAGCAGCUCCCGAGUGAUGUUCGUAGCGAGC [theeternabot_exclusion_KL_Theo_A_41]	0.362	0.339	0.356	0.401	0.336
AAAUUUAUAUUAGAUACCAGCAUUUUGAAUGUUUAUUAUGACAAGAGUGAUGUUCUUGUAUGCCCUUGGCAGCUGGUAUGGGUUU [KL-XTheo-B24]	0.123	0.115	0.136	0.12	0.125
UGCAGUGAUGUUGCGAGUGGCAGAUACGAAGGAGCGUGGUGAGACACAGGUAGGUCGCGUAUCGAAAUUGCUGUCACUAAAAUGC [#8]	0.385	0.411	0.501	0.425	0.46
CGCCGUAAGGCGGUCGCUCCCACUCCGGAAGGAGCGCCCGGAAGGGCAGGUAGGUCGCCGGAGUGAUGUUCCGGUGGAGGGACCG [#2 Exclusion - Arginine A Attempt #9 (Inspired by Omei)]	0.587	0.295	0.365	0.27	0.367
CGGGAUGUUAAAGGAUAUAGCAGGUGAUACAAGAAAGUGAGUGAUGUUUAUGUAGAUGAUGAUAUGUUAGAAGGUUAACAAAACG [abcdefghijkl]	1.04	0.726	0.908	0.686	0.581
CGUAGCAGACGAAGGAGCGGCUACCUGAUUCAAGGUGAUGCUUGAGUGAUGUUCAGGUGUAGCCAGGUAGGUCGCGUCUGCUACG [Arg B Ex t9]	0.201	0.144	0.164	0.18	0.17
UUGUUAUGAUAAAAUCCUGUUUGAUAAAGACAGGAUAUAGAAAAUACUAGAAGGGUCAUUAUAUGCAGUGAUGUUGCAAAUAAGU [Exclusion FMN A Gf 22]	0.041	0.0608	0.0384	0.0551	0.035
GCUCAGGAGUGAUGUUCCAAGUGGUGUUAACGAGGACCGGUACGGCCGCCACUCGAUACGGCCGGACCGUAGGAUAAACUAGAGC [Same State - Tryptophan A (Freestyle 11)]	0.233	0.175	0.196	0.28	0.206
AUUAUCAAUUUAUUAUAUAACUUUUCAGAAGGAGCGUGGAAGUACACAGGUAGGUCGCUGAAUAUAGGACUAGUGAUGUUAGUUA [JR_Nu_SSArginiA_Sub024]	0.236	0.221	0.266	0.298	0.248

Sequence	apparent KD of K4 kissing-loop reporter (input ligand: FMN 200 uM) [µM]	apparent KD of K4 kissing-loop reporter (input ligand: arginine 13.2 mM) [µM]	apparent KD of K4 kissing-loop reporter (input ligand: none) [µM]	apparent KD of K4 kissing-loop reporter [1] [µM]	apparent KD of K4 kissing-loop reporter [2] [µM]
GCCUACGAUGCAGGAUAUAGCUCGCGAGUGAUGUUCGCAGCUGUAUGGUAGUAAGCUUCCACGUGUCUAGAAGGGCAUCGUAGGC [#01 K4 FMN B Exclusion]	0.131	0.0802	0.0936	0.0833	0.0887
UGUCAUUGGUCGGCCGCCACUAGAAGGUCAAAGACCAUAGAGUGAUGUUCUGAGACGAAAGUCACUAGGACCGGGACCGAUGACU [TrypBS 6 #SwitchBubble #K4Middle]	0.462	0.385	1.14	0.44	0.786
GUGUCCUAGUCGGCCGCCACUGGGUGCAAAAUAGAAGGAGCAUUGCACAUCAGUGAUGUUGAUGUCAGGACCGGGACUAGGGUGU [KL-SSTryp-B5 Brourdwalk1]	0.652	0.406	0.597	0.563	0.439
GCAACAUUGGGAGGAUAUCAUUCUGAGUGAUGUUCAGGGUUCAGCUAACGAAAGUUAGUUGUACCAUGAGAAGGUCUAAUGUUGC [Omei KL FMN B SS A v6]	0.342	0.975	1.18	1.02	1.15
ACGCCGAGGACGGCCGCCACUAUGACGAAGUCCGUUCCUAUUACUGCGCGAGUGAUGUUCACGACUAGGACCGGGUCUAUGAGCU [theeternabot_exclusion_KL_Trp_B_28]	0.775	0.708	0.843	0.771	0.631
AAGGUUUAGCACGAUACCAGCCUGGAGGCCAGUGAUGUUGGCCGAUUUGAACAGAAUUAAGGCCCUUGGCAGCGUCUCUAAAACC [Dierra]	0.191	0.18	0.192	0.144	0.176
UGUAUGUGAUUUGAUACCAGACCAGCUGGUGGUGUAUGAGUGAUGUUCAUGCUGGUUUGGGUCCCUUGGCAGCAAAUCGCAUACU [KL-SSTheoB29]	0.0106	0.00648	0.00846	0.0076	0.00889
AAAUAGAUCAGUCACCCAGUGAUGUUGGAAGGAGCGUGCGAAAGCACAGGUAGGUCGCCAUAAUAAAAGUGGCUGAUCAAAAUAA	0.446	0.287	0.487	0.534	0.31
AAUGCAUAGUGAAGGAGCGCGAUUUGCAGUGAUGUUGCAAAUUUAAACAAUCUUAUCUUUUCGCAGGUAGGUCGCACUAUGCAUA [JR_Nu_SSArginiB_Sub021]	0.0941	0.0903	0.0882	0.0809	0.0887
CGCAGGAUGGAAGGAUAUGGGAGUUGACGUCGCCGAGCUAACCUUCUGCACGGAGUGAUGUUUAGACCAGAAGGUCCUCGGAGCA [theeternabot_exclusion_KL_FMN_B_17]	1.21	0.997	1.61	1.15	1.18
AUCAGUGUCUCACGCUACGACAUAUACGAUACCAGUCACCCUGAUGACCCUUGGCAGCGUCAACGAGUGAUGUUCGGGUUCUAGA [theeternabot_sameState_KL_Theo_A_1]	0.345	0.241	0.404	0.389	0.309
AGACUACCACACUGUCAAUAGACAGUGAGGUAGGAUAUGCUGAAAAGCAGAAGGACCAGUGAUGUUGGUAGGUAGUCAAAAUAAA [FmnAX 11 #SwitchBubble #StaticStem #K4Early]	0.185	0.112	0.0848	0.128	0.0749
AGACUACCACACUGUCAAUAGACAGUGAAUUAGGAUAUGCUGAUAAGCAGAAGGAGUGAUGUUCCCAGGUAGUCAAUAAAAUAAU [FmnAX 13 U30+C66]	0.169	0.124	0.167	0.202	0.177
UGAUACCAGACGGCCGCCACUGCACCAGUCAAUGACUGAGUGCGGUAGUGCUCAGUGAUGUUGAGUAGGACCGGGUCUGGUAUCU [Mod of Eli's TrypBX 8 v3]	0.148	0.124	0.131	0.13	0.13
AAAAUAAGCCAGUGAUGUUGGUAUGCAGAUACCAGCGACGAAAGUCGCCCUUGGCAGCUGUGGACGUACAAAAUAAGUACGUCCU	0.253	0.109	0.329	0.331	0.179
AGCGCCUAAGCCGAUACCAGAAACGCGGUGCGUCGCACGAUUAACUAGGAAAGUGAUGUUUUCCCUUGGCAGCGGGACCUGUGAG [theeternabot_exclusion_KL_Theo_B_11]	0.119	0.116	0.134	0.133	0.135
UGACUACAAGGAAAAUAAUCCUAGUGAUGUUAGGAUAUGCUGAUAAGCAGAAGGAACUGAGAUCGAAAGAUCUCAAAUGUAGUCU [FmnAX 27 Mat Inspired #SwitchBubble #StaticStem #K4Early]	0.121	0.092	0.0872	0.102	0.0935
UCGCCGCUCACGGCCGCCACUAAGCCCAAGACCAGAGAGUGAUGUUCUAUCCACGUUUCAAUUUUUAGGACCGGGUGAAAGGCGA [theeternabot_sameState_KL_Trp_B_14]	0.779	0.411	0.729	0.625	0.618
ACAAAAGUGAUGUUUUUGAACGUGCGCGAUACCAGAAAUGUCUUCUUCCCUUGGCAGCGCUAUUACUUGUAAGAAAGUACGUUUC [theeternabot_sameState_KL_Theo_A_17]	0.969	0.528	0.87	0.774	0.49
GCAGUGAUGUUGCGCGGGUACGGUAGAGUGCGAGGACCGGUACGGCCGCCACUCGUACGGAACUGGCUAAUAUAUGGAUAGGUGA [V]	0.496	0.318	0.446	0.406	0.243
CGAUAGGGAAGUCGAUUGCUCACUGGUAAACGAGGACCGGUACGGCCGCCACUCGGGUCCAGUGAUGUUGGACUUUGUGGCGGGC [Edladian]	0.117	0.0995	0.104	0.0995	0.109
